Experimental data published in patent publication US20090104204A1 (CRUCELL HOLLAND B V, published 2009).

B1: single-chain phage antibody SC02-430 (scFv)
scFv: QVQLQESGPGLVKPSQTLSLTCTVSGGSISSGGYYWSWIRQPPGKGLEWIGYIYYSGSTYYNSSLKSRVTISVDTSKNQFSLKLSSVTAADTAVYYCAKTVMNSFFDWGQGTLVTVSSGGGGSGGGGSGGGGSEIELTQPPSVSGSPGQSITISCTGTSSDVGSYNLVSWYQQHPGKAPKLMIYEVSKRPSGVSNRFSGSKSGNTASLTISGLQAEDEADYYCCSYAGSSWVFGGGTKLTVL
notes: Selected from the semi-synthetic library JK1994 on S. aureus strain Cowan; also called scFv SC02-430
B2: single-chain phage antibody SC05-133 (scFv)
scFv: EVQLVETGGGLVKPGGSLRLSCSASRFSFRDYYMTWIRQAPGKGPEWVSHISGSGSTIYYADSVRGRFTISRDNAKSSLYLQMDSLQADDTAVYYCARGGRATSYYWVHWGPGTLVTVSSGTGGSGGTGSGTGGSTEIVLTQSPATLSLSPGERATLSCRASQSVSGYLGWYQQKPGQAPRLLIYGASSRATGIPDRFSGSGSGTDFTLTISRLEPEDFAVYYCQQYGSSPLTFGGGTKLEIKR
notes: also called scFv SC05-133

Assays:
[1] = target: T1, bovine serum albumin (bovine, UniProt P02769 25-607); experiment: ELISA, phage antibody on coated 1% BSA, anti-M13 peroxidase, OD 492 nm
T1 construct: Negative control antigen in the non-specific reactivity ELISA; also called BSA; BSA (1%)
Experimental: (§1) To test for non-specific reactivity against non-bacterial antigens an ELISA assay was used. The complex antigens 5% FBS, 2% ELK and 1% BSA were coated overnight to Maxisorp™ ELISA plates. Selected single-chain phage antibodies were incubated for 15 minutes in an equal volume of PBS containing 1% BSA to obtain blocked phage antibodies. The plates were emptied, and the blocked single-chain phage antibodies were added to the wells. Incubation was allowed to proceed for two hours at room temperature, the plates were washed in PBS containing 0.1% v/v Tween-20 and bound phage antibodies were detected by means of OD 492 nm measurement using an anti-M13 antibody conjugated to peroxidase. As a control, the procedure was performed simultaneously without single-chain phage antibody, with a negative control single-chain phage antibody directed against West Nile virus envelope protein (SC04-374).

[2] = target: T1, bovine serum albumin; experiment: ELISA, phage antibody on coated 1% BSA, anti-M13 peroxidase
Experimental: as §1

T1 sequence (P02769 25-607 limits assumed): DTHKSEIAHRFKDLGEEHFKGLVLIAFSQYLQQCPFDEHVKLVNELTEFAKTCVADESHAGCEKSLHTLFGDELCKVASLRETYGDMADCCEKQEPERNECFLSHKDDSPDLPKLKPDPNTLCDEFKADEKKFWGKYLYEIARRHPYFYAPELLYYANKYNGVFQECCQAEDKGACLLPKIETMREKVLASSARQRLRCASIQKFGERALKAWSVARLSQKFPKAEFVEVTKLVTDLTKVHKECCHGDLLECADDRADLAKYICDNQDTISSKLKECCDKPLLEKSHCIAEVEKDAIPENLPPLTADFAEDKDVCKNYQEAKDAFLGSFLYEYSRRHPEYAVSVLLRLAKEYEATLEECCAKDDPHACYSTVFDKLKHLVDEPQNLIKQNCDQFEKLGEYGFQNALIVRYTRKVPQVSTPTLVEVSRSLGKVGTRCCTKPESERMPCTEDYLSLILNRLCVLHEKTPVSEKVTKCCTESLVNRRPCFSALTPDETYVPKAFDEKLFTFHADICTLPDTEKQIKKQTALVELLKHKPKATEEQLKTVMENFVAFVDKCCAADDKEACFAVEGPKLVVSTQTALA

Row | Binder | binding result [1] | ELISA (OD492 nm) [2] [OD492 nm]
1 | B1 | no binding | 0.04
2 | B2 | no binding | 0.04
